B1: hTid-1L: 43 kDa mitochondrial matrix splice variant encoded by human TID1, SEQ ID NO: 8; proapoptotic (protein, listed as Homo sapiens)
chain: MAARCSTRWLLVVVGTPRLPAISGRGARPPREGVVGAWLSRKLSVPAFASSLTSCGPRALLTLRPGVSLTGTKHNPFICTASFHTSAPLAKEDYYQILGVPRNASQKEIKKAYYQLAKKYHPDTNKDDPKAKEKFSQLAEAYEVLSDEVKRKQYDAYGSAGFDPGASGSQHSYWKGGPTVDPEELFRKIFGEFSSSSFGDFQTVFDQPQEYFMELTFNQAAKGVNKEFTVNIMDTCERCNGKGNEPGTKVQHCHYCGGSGMETINTGPFVMRSTCRRCGGRGSIIISPCVVCRGAGQAKQKKRVMIPVPAGVEDGQTVRMPVGKREIFITFRVQKSPVFRRDGADIHSDLFISIAQALLGGTARAQGLYETINVTIPPGTQTDQKIRMGGKGIPRINSYGYGDHYIHIKIRVPKRLTSRQQSLILSYAEDETDVEGTVNGVTLTSSGGSTMDSSAGSKARREAGEDEEGFLSKLKKMFTS
B2: hTid-1S: 40 kDa mitochondrial matrix splice variant encoded by human TID1, SEQ ID NO: 9; antiapoptotic (protein, listed as Homo sapiens)
chain: MAARCSTRWLLVVVGTPRLPAISGRGARPPREGVVGAWLSRKLSVPAFASSLTSCGPRALLTLRPGVSLTGTKHNPFICTASFHTSAPLAKEDYYQILGVPRNASQKEIKKAYYQLAKKYHPDTNKDDPKAKEKFSQLAEAYEVLSDEVKRKQYDAYGSAGFDPGASGSQHSYWKGGPTVDPEELFRKIFGEFSSSSFGDFQTVFDQPQEYFMELTFNQAAKGVNKEFTVNIMDTCERCNGKGNEPGTKVQHCHYCGGSGMETINTGPFVMRSTCRRCGGRGSIIISPCVVCRGAGQAKQKKRVMIPVPAGVEDGQTVRMPVGKREIFITFRVQKSPVFRRDGADIHSDLFISIAQALLGGTARAQGLYETINVTIPPGTQTDQKIRMGGKGIPRINSYGYGDHYIHIKIRVPKRLTSRQQSLILSYAEDETDVEGTVNGVTLTSSGKRSTGN

Assays:
mtHsp70 = molecular target: T1, mtHsp70 (Homo sapiens, UniProt P38646); assay: Coimmunoprecipitation-immunoblot with mtHsp70; type: binding; settings: endogenous proteins, U2OS cells
T1 construct: immunoprecipitate endogenous hTid-1L and hTid-1S in complex with mtHsp70 from human U2OS cells; endogenous in cells
Procedure: Immunoprecipitation. One 10-cm Plate of SAOS-2 Cells was Trypsinized, Washed in PBS, and lysed in 1% NP40/150 mM NaCl/50 mM Tris HCl, pH 8.0/1 μg/ml each aprotinin and leupeptin/0.01% PMSF on ice. The sample was split into four fractions and incubated for 1 hour with either anti-hTid-1, anti-mtHsp70, or anti-Hsc70 mAbs. Immune complexes were collected on protein G agarose beads (GIBCO) and washed three times in 0.1% NP40 lysis buffer. Samples were then separated by SDS/PAGE, transferred to poly(vinylidene difluoride) membrane, and probed with either anti-mtHsp70, anti-Hsc70, or anti-hTid-1 mAbs. Proteins were visualized by ECL (Amersham Pharmacia) by using x-ray film.

U2OS cells = assay: Apoptosis assay, Hoechst-stained apoptotic nuclei counted in inducible U2OS cells; type: cell-based, human; settings: cell line expressing the protein, treated with MMC or TNF-alpha
Procedure: Cell Lines and Reagents. U20S Cells were Cultured in DMEM Containing 10% Fetal Calf serum supplemented with 50 units/ml penicillin and 50 μg/ml streptomycin. Inducible hTid-1L, hTid-1S, H121QL, and H121QS were expressed in U20S cells from a plasmid containing a muristerone-inducible promoter (Invitrogen). Inducible cells lines were cultured under constant selection with 50 μg/ml Zeocin (Invitrogen) and 300 μg/ml G418. Gene expression was induced with 1 μM muristerone (Invitrogen) for 24 hours. SAOS-2 cells were cultured in DMEM containing 15% fetal calf serum and 50 units/ml penicillin and 50 μg/ml streptomycin.
Apoptosis Assays. Inducible U2OS Cells were Induced with 1 μM Muristerone for 24 hours, or went uninduced and were treated with either the indicated concentration of mitomycin c (Sigma) for 24 hours or the indicated concentration of TNF plus 30 μg/ml cycloheximide. Cells were fixed by exposure to methanol vapor for 10 minutes followed by immersion in methanol for at least 10 minutes. Cells were stained with 1 μg/ml Hoechst 33258 and 0.1% lowfat milk (Carnation) for 7 minutes and rinsed in water. Apoptotic nuclei were counted by using fluorescence microscopy. For transient-transfection experiments, U2OS cells were transfected by the calcium phosphate technique by using BES-buffered saline. […] Cells expressing green fluorescent protein were counted and scored for apoptotic nuclei.

[1] = test system: cytochrome c release from mitochondria; assay: Cytochrome c release assay, immunoblot of cytoplasmic extracts of U2OS cells treated with TNF; type: cell-based, human; settings: inducible U2OS lines, TNF treatment
Procedure: For cytochrome c release assays, U2OS cells were induced with muristerone for 24 hours and treated with 10 ng/ml TNF plus 30 μg/ml cycloheximide for 4.5 hours. Cells were then trypsinized, resuspended in sucrose buffer, homogenized in a Teflon tissue homogenizer, and centrifuged at 10,000×g for 10 minutes as described above. Postmitochondrial supernatant (100 μg of protein) was then analyzed by Western blot analysis for the presence of cytoplasmic cytochrome c. Cytochrome c levels were quantitated by using NIH IMAGE software.

caspase 3 = assay: Pro-caspase 3 cleavage and activation, immunoblot and fluorogenic activity assay, U2OS cells treated with TNF; type: cell-based, human; settings: inducible U2OS lines, TNF treatment
Procedure: Caspase Activation and Cytochrome c Release Assays. U2OS Cells were Induced for 24 hours with 1 μM muristerone and treated for the indicated time with 10 ng/ml TNF plus 30 μg/ml cycloheximide. Cells were trypsinized, washed in PBS, and resuspended in lysis buffer (1% NP40/50 mM Tris HCl/150 mM NaCl, pH 8.0/1 μg/ml each aprotinin and leupeptin/0.01% PMSF), and protein concentration was analyzed by using the Bradford method (Bio-Rad). Sixty micrograms of total cell lysate was then analyzed by Western blot analysis using mAb specific for pro-caspase 3 and pro-caspase 8.
Caspase activity was measured by using fluorescent caspase 8 and caspase 3 activity assays (CLONTECH). Inducible U20S cells were induced with muristerone for 24 hours and treated with 10 ng/ml TNF plus 30 μg/ml cycloheximide for 4.5 hours. Cells were trypsinized, combined with apoptotic cells in the tissue-culture media, counted, and assayed for caspase activity by the manufacturer's protocol on a fluorescent plate reader (excitiation 380 mn, emission 530 nm). For caspase 8 activity, 1×10^6 cells of each line were used, and for caspase 3 activity, 3.5×10^5 cells of each line were used.

T1 sequence (P38646 47-679): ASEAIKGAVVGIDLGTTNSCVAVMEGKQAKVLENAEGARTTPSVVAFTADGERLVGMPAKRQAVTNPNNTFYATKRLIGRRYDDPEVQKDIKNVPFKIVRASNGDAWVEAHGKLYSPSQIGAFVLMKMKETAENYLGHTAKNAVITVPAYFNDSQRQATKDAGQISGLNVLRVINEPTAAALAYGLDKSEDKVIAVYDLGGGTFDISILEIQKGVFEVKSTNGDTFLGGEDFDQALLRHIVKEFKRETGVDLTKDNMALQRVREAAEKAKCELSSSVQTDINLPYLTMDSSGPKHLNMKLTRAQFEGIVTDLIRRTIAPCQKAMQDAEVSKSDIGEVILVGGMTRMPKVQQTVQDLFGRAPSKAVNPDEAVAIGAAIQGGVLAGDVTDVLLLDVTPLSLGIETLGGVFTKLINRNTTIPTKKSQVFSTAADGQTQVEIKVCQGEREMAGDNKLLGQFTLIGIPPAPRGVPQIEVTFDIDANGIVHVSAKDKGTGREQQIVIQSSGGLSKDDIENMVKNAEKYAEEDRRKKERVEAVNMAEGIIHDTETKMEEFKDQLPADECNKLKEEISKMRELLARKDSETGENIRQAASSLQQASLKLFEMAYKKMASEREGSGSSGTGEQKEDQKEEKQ

Row | Molecule | Interaction with mtHsp70 (coimmunoprecipitation) (mtHsp70) | Levels of apoptosis relative to control cells (U2OS cells) | Cytochrome c released from mitochondria relative to control cells [1] | Cleavage and activation of pro-caspase 3 relative to control cells (caspase 3)
1 | B1 | interact specifically | markedly increased levels of apoptosis | more cytochrome c is released | more efficiently
2 | B2 | interact specifically | decreased levels of apoptosis | release less cytochrome c | decreased cleavage and activation

From patent publication US6825005B2, “Methods and reagents to regulate apoptosis” (President and Fellows of Harvard College, priority 2000, dated 2004)
